According to doi:10.1101/2021.12.25.474155:
Where two headings read alike, the source gives them in different places.

Tests used:
NCAP [1] = biological target: T1, NCAP (SARS-CoV-2, UniProt P0DTC9); assay: EMSA
LCD [2] = biological target: T2, LCD (SARS-CoV-2, UniProt P0DTC9); assay: EMSA
DD-C [3] = biological target: T3, DD-C (SARS-CoV-2, UniProt P0DTC9); assay: EMSA
NCAP [4] = biological target: T1, NCAP; assay: EMSA; remark: listed apart in the source
N-RBD [5] = biological target: T4, N-RBD (SARS-CoV-2, UniProt P0DTC9); assay: EMSA
LCD [6] = biological target: T2, LCD; assay: EMSA; remark: listed apart in the source
DD-C [7] = biological target: T3, DD-C; assay: EMSA; remark: listed apart in the source
N-RBD [8] = biological target: T4, N-RBD; assay: EMSA; remark: listed apart in the source
NCAP [9] = biological target: T1, NCAP; assay: EMSA; remark: listed apart in the source
NCAP [10] = biological target: T1, NCAP; assay: EMSA; remark: listed apart in the source
NCAP [11] = biological target: T1, NCAP; assay: competition
NCAP [12] = biological target: T1, NCAP; assay: competition; remark: listed apart in the source

B1: S2hp (structured_RNA)
RNA: GGCUGUGUGGCUGUCACUCGGCUGCAUGCUUAGUGCACUCACGCAGUAUAAUUAAUAACUAAUUACUGUCGUUGACAGGACACGAGUAACUCGUCUAUCUUCUGCAGGCUGCUUACGGUUUCGUCCGUGUUGCAGCCGAUCAUCAGCACAUCUAGGUUUCGUCCGGGUGUGACCGAAAGGUAAGAUGGAGAGCCUUGUCCCUGGUUUCAACGA
Kd (NCAP [1]): 173 ± 14 nM | Kd (LCD [2]): ~1410 nM | Kd (DD-C [3]): ~707 nM | Kd (NCAP [4]): 312 ± 39 nM | Kd (N-RBD [5]): ~354 nM

UAUAAUUAAUAACUAAUUACUG (ssRNA) [S2]
Kd (NCAP [1]): 216 ± 23 nM | binding result (LCD [6]): no binding | binding result (DD-C [7]): no binding | binding result (N-RBD [8]): no binding

B2: F294 (structured_RNA)
RNA: GGAUUAAAGGUUUAUACCUUCCCAGGUAACAAACCAACCAACUUUCGAUCUCUUGUAGAUCUGUUCUCUAAACGAACUUUAAAAUCUGUGUGGCUGUCACUCGGCUGCAUGCUUAGUGCACUCACGCAGUAUAAUUAAUAACUAAUUACUGUCGUUGACAGGACACGAGUAACUCGUCUAUCUUCUGCAGGCUGCUUACGGUUUCGUCCGUGUUGCAGCCGAUCAUCAGCACAUCUAGGUUUCGUCCGGGUGUGACCGAAAGGUAAGAUGGAGAGCCUUGUCCCUGGUUUCAACGA
Kd (NCAP [1]): 26 ± 10 nM

B3: F257 (structured_RNA)
RNA: GGUCGUUGACAGGACACGAGUAACUCGUCUAUCUUCUGCAGGCUGCUUACGGUUUCGUCCGUGUUGCAGCCGAUCAUCAGCACAUCUAGGUUUCGUCCGGGUGUGACCGAAAGGUAAGAUGGAGAGCCUUGUCCCUGGUUUCAACGAGAAAACACACGUCCAACUCAGUUUGCCUGUUUUACAGGUUCGCGACGUGCUCGUACGUGGCUUUGGAGACUCCGUGGAGGAGGUCUUAUCAGAGGCACGUCAACAUCUUAAA
Kd (NCAP [1]): 23 ± 5 nM

B4: F127 (structured_RNA)
RNA: GGAUUAAAGGUUUAUACCUUCCCAGGUAACAAACCAACCAACUUUCGAUCUCUUGUAGAUCUGUUCUCUAAACGAACUUUAAAAUCUGUGUGGCUGUCACUCGGCUGCAUGCUUAGUGCACUCACGCAG
Kd (NCAP [1]): 183 ± 56 nM

B5: SL5 (structured_RNA)
RNA: GGUCGUUGACAGGACACGAGUAACUCGUCUAUCUUCUGCAGGCUGCUUACGGUUUCGUCCGUGUUGCAGCCGAUCAUCAGCACAUCUAGGUUUCGUCCGGGUGUGACCGAAAGGUAAGAUGGAGAGCCUUGUCCCUGGUUUCAACGA
Kd (NCAP [1]): 166 ± 36 nM | Kd (NCAP [4]): 1250 ± 130 nM

GGCUGUGUGGCUGUCACUCGGCUGCAUGCUUAGUGCACUCACGCAG (structured_RNA) [SL4]
Kd (NCAP [9]): 4800 ± 200 nM | Kd (NCAP [10]): 356 ± 43 nM

B6: S8hp (structured_RNA)
RNA: GGAAGGAGCUGGUGGCCAUAGUUACGGCGCCGAUCUAAAGUCAUUUGACUUAGGCGACGAGCUUGGCACUGAUCCUUAUGAAGAUUUUCAAGAAAACUGGAACACUAAACAUAGCAGUGGUGUUACCCGUGAACUCAUGCGUGAGCUUAACGGAGGGGCAUACACUCGCUAUGU
binding result (NCAP [11]): binds

B7: S1hp (structured_RNA)
RNA: GGUUUAUACCUUCCCAGGUAACAAACCAACCAACUUUCGAUCUCUUGUAGAUC
binding result (NCAP [12]): binds

B8: S1.5hp (structured_RNA)
RNA: GGAUCUCUUGUAGAUCUGUUCUCUAAACGAACUUUAAAAUCUGUGUGGCUGUCACUCGGCUGCAUGCUUAGUGCACUCACGCAG
binding result (NCAP [12]): binds

GGCUGUGUGGCUGUCACUCGGCUGCAUGCUUAGUGCACUCACGCAG (structured_RNA) [SL4 hairpin]
Kd (NCAP [1]): 569 ± 67 nM | Kd (NCAP [4]): 8600 ± 1000 nM

B9: siDGCR8-1 duplex (dsRNA)
RNA 1: CAUCGGACAAGAGUGUGAUUU
RNA 2: AUCACACUCUUGUCCGAUGUU
modifications: 5'-phosphate on both strands
binding result (NCAP [11]): binds

AUCACACUCUUGUCCGAUGUU (ssRNA, 5'-phosphate) [siDGCR8-1 antisense]
binding result (NCAP [11]): no binding

B10: Tet3-9 (structured_RNA)
RNA: GGACCGUCAAAUUGCGGGAAAGGGGUCAACAGCCGUUCAGUACCAAGUCUCAGGGGAAACUUUGAGAUGGCCUUGCAAAGGGUAUGGUAAUAAGCUGACGGACAUGGUCCUAACCACGCAGCCAAGUCCUAAGUCAACAGGAGACUGUUGAUAUGGAUGCAGUUCACAGACUAAAUGUCGGUCGGGGAAGAUGUAUUCUUCUCAUAAGAUAUAGUCGGACCUCUCCCGAAAGGGAGUUGGAGUACUCGAAAUUCGUUUGGAGGGCUGCAGGGCCCUCUAGA
binding result (NCAP [11]): binds
